Measurements: patent US20210318338A1
“And” between values parts separate entries of the source, which are not always exact repeats. Identical values can stand only once. Like-named read-outs stand apart in the source and are kept apart here.

Tests used:
Test in all cases: cell-based or functional assay
[1] = molecular target: protein S (purified, free form) (UniProt P07225)
[2] = molecular target: protein S (purified, free form) (UniProt P07225); remark: listed apart in the source
[3] = molecular target: tissue factor pathway inhibitor alpha (TFPIα) (UniProt P10646)
Chain of UniProt P10646 (P10646 29-304 limits assumed): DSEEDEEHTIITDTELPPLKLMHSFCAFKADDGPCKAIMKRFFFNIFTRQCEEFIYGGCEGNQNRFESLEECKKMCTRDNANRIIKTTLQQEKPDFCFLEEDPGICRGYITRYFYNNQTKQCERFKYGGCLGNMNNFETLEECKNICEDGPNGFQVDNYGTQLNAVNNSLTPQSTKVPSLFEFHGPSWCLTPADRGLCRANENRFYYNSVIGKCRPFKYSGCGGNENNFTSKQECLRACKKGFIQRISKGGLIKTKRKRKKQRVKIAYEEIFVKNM

| Molecule | loss of the TFPIα-cofactor activity of protein S in the FXa inhibition assay (S2765 absorbance; 5 nM protein S, 2 nM FV-Short, 0.25 nM TFPIα, 0.3 nM FXa) [1] | loss of the TFPIα-cofactor activity of protein S in the FXa inhibition assay (S2765 absorbance; 5 nM protein S, 2 nM FV-Short, 0.25 nM TFPIα, 0.3 nM FXa) [2] | inhibition of FXa by TFPIα (S2765 absorbance) with phospholipid vesicles and 2 nM FV-Short, protein S titrated [3] | inhibition of FXa by TFPIα (S2765 absorbance) without added FV-Short [3] |
| --- | --- | --- | --- | --- |
| C4b-binding protein (C4BP) without bound protein S (from UniProt P04003 49-597; P20851 18-252) | 3.13 nM | 6.25 nM | – | – |
| protein S (purified, free form) (protein, UniProt P07225 42-676, looked up, contains the modified amino acid gamma-carboxy glutamic acid (positions not given)) ANSLLEETKQGNLERECIEELCNKEEAREVFENDPETDYFYPKYLVCLRSFQTGLFTAARQSTNAYPDLRSCVNAIPDQCSPLPCNEDGYMSCKDGKASFTCTCKPGWQGEKCEFDINECKDPSNINGGCSQICDNTPGSYHCSCKNGFVMLSNKKDCKDVDECSLKPSICGTAVCKNIPGDFECECPEGYRYNLKSKSCEDIDECSENMCAQLCVNYPGGYTCYCDGKKGFKLAQDQKSCEVVSVCLPLNLDTKYELLYLAEQFAGVVLYLKFRLPEISRFSAEFDFRTYDSEGVILYAESIDHSAWLLIALRGGKIEVQLKNEHTSKITTGGDVINNGLWNMVSVEELEHSISIKIAKEAVMDINKPGPLFKPENGLLETKVYFAGFPRKVESELIKPINPRLDGCIRSWNLMKQGASGIKEIIQEKQNKHCLVTVEKGSYYPGSGIAQFHIDYNNVSSAEGWHVNVTLNIRPSTGTGVMLALVSGNNTVPFAVSLVDSTSEKSQDILLSVENTVIYRIQALSLCSDQQSHLEFRVNRNNLELSTPLKIETISHEDLQRQLAVLDKAMKAKVATYLGGLPDVPFSATPVNAFYNGCMEVNINGVQLDLDEAISKHNDIRAHSCPSVWKKTKNS | – | – | 1.25 nM and 5 nM | > 10 nM |
